Assays:
Details in all cases: glycan lost; control: wild-type mice
[1] = TAB1 IP and immunoblot, brain tissue
[2] = breeding homozygous knock-in mice with WT
[3] = heart weight per g body weight, three months
[4] = body weight at three months, n=6 per genotype
[5] = heterozygous crosses, observation of homozygous knock-in mice

B1: TAB1 (TGF-β activated kinase-1 binding protein-1): S393A (protein)
parent chain: MAAQRRSLLQSEQQPSWTDDLPLCHLSGVGSASNRSYSADGKGTESHPPEDNWLKFRSENNCFLYGVFNGYDGNRVTNFVAQRLSAELLLGQLNTEHTEADVRRVLLQAFDVVERSFLESIDDALAEKASLQSQLPEGVPQHQLPPQYQKILERLKALEREISGGAMAVVAVLLNSKLYVANVGTNRALLCKSTVDGLQVTQLNMDHTTENEDELFRLSQLGLDAGKIKQMGVICGQESTRRIGDYKVKYGYTDIDLLSAAKSKPIIAEPEIHGAQPLDGVTGFLVLMSEGLYKALEAAHGPGQANQEIAAMIDTEFAKQTSLDAVAQAVVDRVKRIHSDTFASGGERAKFCPRHEDMTLLVRNFGYPLGEMSQPTPTPAPGGRVYPVSVPYSSAQSTSKTSVTLSLVMPSQGQMVNGSHSASTLDEATPTLTNQSPTLTLQSTNTHTQSSSSSSDGGLFRSRPAHSLPPGEDGRVEPYVDFAEFYRLWSVDHGEQSVMTAP
no change: expression_or_secretion [1] | other: fertility [2] | other: heart weight [3] | other: body weight [4] | other: mouse viability and development [5]
